Experimental data taken from patent US20200354457A1 (Hoffmann-La Roche, published 2020).
Where “and” joins values, the source holds several entries; their conditions need not be identical. Equal entries are not always repeated.

T1: murine LAG3-Fc antigen (R&D Systems, 3328-L3-050) (murine, UniProt Q61790 24-442)
T1 construct: Bought reagent
T1 sequence (looked up): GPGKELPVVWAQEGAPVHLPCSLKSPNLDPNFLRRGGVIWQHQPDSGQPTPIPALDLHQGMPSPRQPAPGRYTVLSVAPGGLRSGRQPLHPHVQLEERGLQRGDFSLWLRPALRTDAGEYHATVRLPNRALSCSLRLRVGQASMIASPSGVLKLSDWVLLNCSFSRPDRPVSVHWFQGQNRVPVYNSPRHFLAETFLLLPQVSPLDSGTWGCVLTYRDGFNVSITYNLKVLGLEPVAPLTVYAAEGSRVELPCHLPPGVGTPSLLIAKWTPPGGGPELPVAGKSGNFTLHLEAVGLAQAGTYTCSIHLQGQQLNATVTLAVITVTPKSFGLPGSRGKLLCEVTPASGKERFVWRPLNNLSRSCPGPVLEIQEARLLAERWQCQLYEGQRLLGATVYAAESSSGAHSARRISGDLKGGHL

T2: human LAG3 on recombinant CHO cells (human, UniProt P18627 23-525)
T2 construct: whole, on cells; also called Lag3 cells; recombinant CHO cells expressing Lag3
T2 sequence (looked up): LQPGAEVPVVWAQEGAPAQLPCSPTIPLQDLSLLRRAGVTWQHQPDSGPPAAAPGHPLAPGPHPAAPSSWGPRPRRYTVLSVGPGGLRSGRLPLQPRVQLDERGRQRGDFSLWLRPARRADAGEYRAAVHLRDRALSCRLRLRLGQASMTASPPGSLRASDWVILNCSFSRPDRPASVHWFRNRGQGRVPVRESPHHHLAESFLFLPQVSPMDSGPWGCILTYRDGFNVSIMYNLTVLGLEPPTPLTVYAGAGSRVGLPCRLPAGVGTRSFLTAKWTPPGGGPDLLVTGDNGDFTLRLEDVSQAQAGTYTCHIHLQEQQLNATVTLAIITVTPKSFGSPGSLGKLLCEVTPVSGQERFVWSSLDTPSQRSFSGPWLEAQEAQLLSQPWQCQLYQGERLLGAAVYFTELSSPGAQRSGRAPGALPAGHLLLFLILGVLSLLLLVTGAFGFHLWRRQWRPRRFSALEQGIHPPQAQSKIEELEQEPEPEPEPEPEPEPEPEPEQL

T3: recombinant human LAG3 Fc Chimera Protein (R&D Systems, 2319-L3) (human, UniProt P18627 23-450)
T3 construct: Bought reagent
T3 sequence (looked up): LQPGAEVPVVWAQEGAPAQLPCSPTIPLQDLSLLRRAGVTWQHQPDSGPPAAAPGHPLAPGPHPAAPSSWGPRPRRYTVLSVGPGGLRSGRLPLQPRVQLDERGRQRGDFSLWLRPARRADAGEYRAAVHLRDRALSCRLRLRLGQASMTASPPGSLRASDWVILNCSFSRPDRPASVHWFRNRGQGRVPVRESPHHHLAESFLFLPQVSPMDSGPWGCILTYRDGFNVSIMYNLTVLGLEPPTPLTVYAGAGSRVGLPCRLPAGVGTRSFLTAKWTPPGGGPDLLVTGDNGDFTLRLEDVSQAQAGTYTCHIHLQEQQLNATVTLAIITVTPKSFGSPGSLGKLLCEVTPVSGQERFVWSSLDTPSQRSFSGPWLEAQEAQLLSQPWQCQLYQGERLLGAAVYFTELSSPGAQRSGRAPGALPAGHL


What was measured:
[1] = target: T4, soluble human Lag3-IgG1-Fc with biotinylated C-terminal Avi-tag (human, biotin on the C-terminal Avi-tag); assay: SPR (ProteOn XPR36), biotinylated LAG3-Fc captured on NLC chip, purified aVH as analyte, 25 C;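 further: One-shot kinetics in PBST running buffer, rates fitted by 1:1 Langmuir model fitting association and dissociation together, KD as koff/kon, biotinylated Fc surface as negative control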
T4 construct: also called LAG3-Fc-avi; biotinylated LAG3-Fc antigen

[2] = target: T1, murine LAG3-Fc antigen (R&D Systems, …); assay: ELISA using murine LAG3-Fc antigen
[3] = target: T2, human LAG3 on recombinant CHO cells; assay: cell ELISA on CHO cells expressing human LAG3;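 further: bivalent Fc-format binders titrated in threefold steps from 6 µg/mL, incubated with the cells 2 h at 4 °C, bound antibody detected by HRP-coupled anti-human IgG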
[4] = target: T3, recombinant human LAG3 Fc Chimera …; assay: ELISA, plate coated with human LAG3 Fc chimera
[5] = target: T3, recombinant human LAG3 Fc Chimera …; assay: SPR (Biacore), aVH-Fc captured by anti-human Fc, human LAG-3 Fc chimera as analyte, 25 C
[6] = target: T4, soluble human Lag3-IgG1-Fc with …; assay: A375 MHCII competition ELISA, biotinylated Lag3 250 ng/ml; competitor MHCII on A375 cells
[7] = target: T4, soluble human Lag3-IgG1-Fc with …; assay: A375 MHCII competition ELISA at 3 µg/ml, biotinylated Lag3 250 ng/ml; competitor MHCII on A375 cells

| Binder | Kd [1] | koff [1] | kon [1] | also measured |
| --- | --- | --- | --- | --- |
| LAG3 21B11 aVH domain (VHH) VHH: EVQLVESGGGLVQPGGSLRLSCAASGFNIKDTCIGWVRRAPGKGTELVAEICQDIGYTRYADSVKGRFTISADTSKNTAYLQMNSLRAEDTAVYYCAADESVDNFKYWGQGTTVTVSS | 43 nM | 0.00217 s⁻¹ | 62700 M⁻¹ s⁻¹ | – |
| LAG3 P10C3 aVH domain (VHH) VHH: EVQLVESGGGLVQPGGSLRLSCAASGFNIKDTCIGWVRRAPGKGTELVAEICTDAGYTRYADSVKGRFTISADTSKNTAYLQMNSLRAEDTAVYYCAASESPSGFRYWGQGTTVTVSS | 38.5 nM | 0.00217 s⁻¹ | 56200 M⁻¹ s⁻¹ | – |
| LAG3 P21A03 aVH domain (VHH, also called 21A3) VHH: EVQLVESGGGLVQPGGSLRLSCAASGFNIKDTCIGWVRRAPGKGTELVAEICEDIGYTRYADSVKGRFTISADTSKNTAYLQMNSLRAEDTAVYYCAANEHSVGFNYWGQGTTVTVSS | 13.7 nM | 0.000387 s⁻¹ | 28200 M⁻¹ s⁻¹ | – |
| LAG3 P11E9 aVH domain (VHH) VHH: EVQLVESGGGLVQPGGSLRLSCAASGFNIKDTCIGWVRRAPGKGTELVAEICHDIGYTRYADSVKGRFTISADTSKNTAYLQMNSLRAEDTAVYYCAAEEHVASFEYWGQGTTVTVSS | 6.81 nM | 0.000656 s⁻¹ | 96300 M⁻¹ s⁻¹ | – |
| LAG3 P9G1 aVH domain (VHH) VHH: EVQLVESGGGLVQPGGSLRLSCAASGFNIKDTCIGWVRRAPGKGTELVAEICQDIGYTRYADSVKGRFTISADTSKNTAYLQMNSLRAEDTAVYYCAGEEGATNFKYWGQGTTVTVSS | 5.1 nM | 0.000829 s⁻¹ | 162000 M⁻¹ s⁻¹ | – |
| LAG3 P10D1 aVH domain (VHH, also called P110D1) VHH: EVQLVESGGGLVQPGGSLRLSCAASGFSIKDTCIAWVRRAPGKGTELVAEICEDIGYTRYADSVKGRFTISADTSKNTAYLQMNSLRAEDTAVYYCAAKEAGVGFDYWGQGTTVTVSS | 27 nM | 0.00383 s⁻¹ | 144000 M⁻¹ s⁻¹ | – |
| LAG3 17D7 aVH domain (VHH) VHH: EVQLVESGGGLVQPGGSLRLSCAASGFNIKDTCIGWVRRAPGKGTELVAEICTDIGYTRYADSVKGRFTISADTSKNTAYLQMNSLRAEDTAVYYCAAGEGSSGFHYWGQGTTVTVSS | 311 nM | 0.00493 s⁻¹ | 15900 M⁻¹ s⁻¹ | – |
| LAG3 P11E2 aVH domain (VHH) VHH: EVQLVESGGGLVQPGGSLRLSCAASGFNIKDTCIGWVRRAPGKGTELVAEICDDIGYTRYADSVKGRFTISADTSKNTAYLQMNSLRAEDTAVYYCASQEHQWSFKYWGQGTTVTVSS | 36.7 nM | 0.00157 s⁻¹ | 42800 M⁻¹ s⁻¹ | – |
| LAG3 9B4 aVH domain (VHH) VHH: EVQLVESGGGLVQPGGSLRLSCAASGFNIKDTCIGWVRRAPGKGTELVAEICQDIGYTRYADSVKGRFTISADTSKNTAYLQMNSLRAEDTAVYYCAAVEVAEYFEYWGQGTTVTVSS | 86 nM | 0.00314 s⁻¹ | 36500 M⁻¹ s⁻¹ | – |
| LAG3 19G3 aVH domain (VHH, also called P19G3) VHH: EVQLVESGGGLVQPGGSLRLSCAASGFNIKYQCIGWVRRAPGKGTELVAEICSYDGYTRYADSVKGRFTISADTSKNTAYLQMNSLRAEDTAVYYCAAEESVEGFIYWGQGTTVTVSS | 766 nM | 0.00466 s⁻¹ | 6080 M⁻¹ s⁻¹ | – |
| bivalent P11E2 aVH-Fc (Fc fusion) EVQLVESGGGLVQPGGSLRLSCAASGFNIKDTCIGWVRRAPGKGTELVAEICDDIGYTRYADSVKGRFTISADTSKNTAYLQMNSLRAEDTAVYYCASQEHQWSFKYWGQGTTVTVSSGGGGSGGGGSDKTHTCPPCPAPEAAGGPSVFLFPPKPKDTLMISRTPEVTCVVVDVSHEDPEVKFNWYVDGVEVHNAKTKPREEQYNSTYRVVSVLTVLHQDWLNGKEYKCKVSNKALGAPIEKTISKAKGQPREPQVYTLPPSRDELTKNQVSLTCLVKGFYPSDIAVEWESNGQPENNYKTTPPVLDSDGSFFLYSKLTVDKSRWQQGNVFSCSVMHEALHNHYTQKSLSLSPGK | – | – | – | binding result [2]: no binding; EC50 [3]: 0.0603 µg/mL and 0.8 nM; OD max [3]: 1.2 OD; EC50 [4]: 0.143 µg/mL and 1.9 nM; OD max [4]: 1.1 OD; koff [5]: 6.8e-05 s⁻¹; t1/2 [5]: 2.83 h; IC50 [6]: 0.155 µg/mL and 2.1 nM; % Inhibition [7]: 91% |
| bivalent P11E9 aVH-Fc (Fc fusion) EVQLVESGGGLVQPGGSLRLSCAASGFNIKDTCIGWVRRAPGKGTELVAEICHDIGYTRYADSVKGRFTISADTSKNTAYLQMNSLRAEDTAVYYCAAEEHVASFEYWGQGTTVTVSSGGGGSGGGGSDKTHTCPPCPAPEAAGGPSVFLFPPKPKDTLMISRTPEVTCVVVDVSHEDPEVKFNWYVDGVEVHNAKTKPREEQYNSTYRVVSVLTVLHQDWLNGKEYKCKVSNKALGAPIEKTISKAKGQPREPQVYTLPPSRDELTKNQVSLTCLVKGFYPSDIAVEWESNGQPENNYKTTPPVLDSDGSFFLYSKLTVDKSRWQQGNVFSCSVMHEALHNHYTQKSLSLSPGK | – | – | – | binding result [2]: no binding; EC50 [3]: 0.0375 µg/mL and 0.5 nM; OD max [3]: 1.3 OD; EC50 [4]: 0.121 µg/mL and 1.6 nM; OD max [4]: 1.9 OD; koff [5]: 2.4e-05 s⁻¹; t1/2 [5]: 8.16 h; IC50 [6]: 0.086 µg/mL and 1.1 nM; % Inhibition [7]: 97.2% |
| LAG3 P11A2 aVH domain (VHH) VHH: EVQLVESGGGLVQPGGSLRLSCAASSFNIKDTYIGWVRRAPGKGTELVAEIACHEGTTRYADSVKGRFTISCDTSKNTAYLQMNSLRAEDTAVYYCANTEYDDIFDYWGQGTTVTVSS | 55 nM | 0.0138 s⁻¹ | 251000 M⁻¹ s⁻¹ | – |
